This note sets out measurements from patent publication US20110111454.

In the series the target is T1, IFNα2b[Tn]-FCHASE.
T1 chain: VGVTETP

B1: CgtBOH4384 (FL, N-terminal MalE) (protein)
chain: MFKISIILPTYNVEQYIARAIESCINQTFKDIEIIVVDDCGNDNSINIAKEYSKKDKRIKIIHNEKNLGLLRARYEGVKVANSPYIMFLDPDDYLELNACEECIKILDEQDEVDLVFFNAIVESNVISYKKFDFNSGFYSKKEFVKKIIAKKNLYWTMWGKLIRKKLYLEAFASLRLEKDVKINMAEDVLLYYPMLSQAQKIAYMNCNLYHYVPNNNSICNTKNEVLVKNNIQELQLVLNYLRQNYILNKYCSVLYVLIKYLLYIQIYKIKRTKLMVTLLAKINILTLKILFKYKKFLKQC
Take B1: the Specific Activity (mU/mg) on 1 mM IFNα2b[Tn]-FCHASE is 83.5 mU/mg.

B2: CgtB11168 (FL, N-terminal MalE) (protein)
chain: MSQISIILPTYNVEKYIARALESCINQTFKDIEIIVVDDCGNDKSIDIAKEYASKDDRIKIIHNEENLKLLRARYEGAKVATSPYIMFLDSDDYLELNACEECIKILDMGGGGKIDLLCFEAFITNAKKSIKKLNIKQGKYNNKEFTMQILKTKNPFWTMWAKIIKKDIYLKAFNMLNLKKEIKINMAEDALLYYPLTILSNEIFYLTQPLYTQHVNSNSITNNINSLEANIQEHKIVLNVLKSIKNKKTPLYFLIIYLLKIQLLKYEQNFNKRNINLIYYKINILYQKYQFKWKKFLYNLIP
For B2, the “conversion of the glycopeptide acceptor by capillary electrophoresis” value is on record as “ND^2 (For the CgtB enzyme from the 11168 only very low-level conversion was detectable on the glycopeptide acceptor by capillary electrophoresis <5%.)”.
